Test [1] concerns the target T1, Human heat shock transcription factor 1 (Hsf1), wild type (human), Q00613.
T1 chain: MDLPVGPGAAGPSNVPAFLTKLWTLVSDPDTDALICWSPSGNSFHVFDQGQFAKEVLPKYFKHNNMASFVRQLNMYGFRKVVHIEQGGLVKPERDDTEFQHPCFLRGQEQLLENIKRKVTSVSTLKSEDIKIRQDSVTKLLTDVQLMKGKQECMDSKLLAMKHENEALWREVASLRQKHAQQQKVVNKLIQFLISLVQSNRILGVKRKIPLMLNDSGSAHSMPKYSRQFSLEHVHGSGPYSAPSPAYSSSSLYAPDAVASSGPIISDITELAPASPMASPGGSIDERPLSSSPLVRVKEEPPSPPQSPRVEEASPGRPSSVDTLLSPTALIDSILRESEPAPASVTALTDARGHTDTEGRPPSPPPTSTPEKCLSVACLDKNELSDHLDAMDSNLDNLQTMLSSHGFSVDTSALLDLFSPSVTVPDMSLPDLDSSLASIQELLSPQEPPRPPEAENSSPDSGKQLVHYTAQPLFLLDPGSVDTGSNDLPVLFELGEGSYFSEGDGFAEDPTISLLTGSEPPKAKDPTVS
Put plainly: SEC + native gel or EMSA. The conditions noted are these: remark: other sources report otherwise. In general terms: A gel shift assay detects complexes by their altered migration in electrophoresis.

For test [2], the target named is T1, Human heat shock transcription factor 1 …. Put plainly: native gel or EMSA. The conditions noted are these: remark: other sources report otherwise.

B1: Human heat shock transcription factor 1 (Hsf1), wild type, Q00613 1-529 (natural protein)
chain: T1 chain
By stoichiometry N is commonly meant the number of molecules, sites or subunits per partner or assembly. For B1, the stoichiometry N in test [1] was 3; in test [2], above 3.

For the origin of these results see article doi:10.1101/803361.
